Experimental data: patent US20250049896A1 (Regeneron, published 2025)
Changes are numbered by the printed parent chain.

B1: 31874B (antibody, human IgG1, kappa, V domains shown)
VH: EVQLVESGGGLVQPGGSLRLSCAASGFAFSSYAMTWVRQAPGKGLEWVSVISGTGGSTYYADSVKGRFTISRDNSKNTLYLQMNSLRAEDTAVYYCAKGGAARRMEYFQYWGQGTLVTVSS
VL: DIQMTQSPSSLSASVGDRVTITCRASQGISNYLAWYQQKPGKVPNLLIYAASTLQSGVPSRFSGSGSGTDFTLTISSLQPEDVATYYCQKYNSAPLTFGGGTKVEIKR
notes: Tested as bivalent human IgG1 from CHO primary supernatant; also called H1H31874B; REGN17517
B2: 12816B (antibody, human IgG1, kappa, V domains shown)
VH: QVQLVESGGGLVKPGGSLRLSCAASGFTFSDYYMNWIRQAPGKGLEWVSYISSSGTTIYYADSVKGRFTISRDNAKKSLYLEMNSLRAEDTAVYYCAREGYGNDYYYYGIDVWGQGTTVTVSS
VL: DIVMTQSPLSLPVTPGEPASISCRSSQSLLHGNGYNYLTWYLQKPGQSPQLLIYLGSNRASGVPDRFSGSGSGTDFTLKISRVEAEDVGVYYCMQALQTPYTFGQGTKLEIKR
notes: Tested as bivalent human IgG1 from CHO primary supernatant
B3: 12833B (antibody, human IgG1, kappa, V domains shown)
VH: QVQLVESGGGVVQPGRSLRLSCAASGFTFSSFGMHWVRQAPGKGLEWVIFISYDGSDKYYADSVKGRFAISRDSSKNTLYLQMNSLRAEDTAVYYCAKENGILTDSYGMDVWGQGTTVTVSS
VL: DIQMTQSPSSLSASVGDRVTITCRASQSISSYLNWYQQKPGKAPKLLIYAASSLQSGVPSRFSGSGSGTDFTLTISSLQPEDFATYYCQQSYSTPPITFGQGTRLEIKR
notes: as for B2
B4: 69261 (antibody, human IgG1, kappa, V domains shown)
VH: B2 VH with D31V, T56S, K77N, E82Q, A97G, G102S, N103G, D104T, Y106S, I110M
VL: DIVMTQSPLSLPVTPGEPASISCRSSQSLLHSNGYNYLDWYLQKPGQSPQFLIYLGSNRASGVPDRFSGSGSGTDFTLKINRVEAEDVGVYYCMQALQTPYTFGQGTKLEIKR
notes: as for B2
B5: 69263 (antibody, human IgG1, kappa, V domains shown)
VH: EVQLVESGGGLVQPGRSLRLSCAVSGFTFDDYAMHWVRQAPGKGLEWVSGISWNSGTRGYADSVKGRFTISRDNAKNSLYLQMNSLRGEDTALYYCVKDITISPNYYGMDVWGQGTTVTVSS
VL: B1 VL with G28D, N31H, L33S, V43L, T72S, I75T, A94V
notes: as for B2
B6: 69323 (antibody, human IgG1, kappa, V domains shown)
VH: EVQLVESGGGLVQPGRSLRLSCAASGFTFDDYAMHWVRQAPGKGLEWVSGISWNSGYIGYADSVKGRFTISRDNAENSLHLQMNSLRAEDTALYYCARGGSTLVRGVKGGYYGMDVWGQGTTVTVSS
VL: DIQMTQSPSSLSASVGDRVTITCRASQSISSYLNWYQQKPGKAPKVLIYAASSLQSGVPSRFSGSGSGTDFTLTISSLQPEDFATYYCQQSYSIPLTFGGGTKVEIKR
notes: as for B2
B7: 69331 (antibody, human IgG1, kappa, V domains shown)
VH: QVQLVESGGGVVQPGRSLRLSCIASGFTFSVYGIHWVRQAPGKGLEWMAVISHDGNIKHYADSVKGRFTISRDNSKNTLYLQINSLRTEDTAVYYCAKDTWNSLDTFDIWGQGTMVTVSS
VL: B1 VL with M4L, R24W, N31S, V43A, N45K, D70E, V83F, K90Q, Y91L, A94Y
notes: as for B2
B8: 69340 (antibody, human IgG1, kappa, V domains shown)
VH: EVQLVESGGGLVQPGRSLRLSCAASGFTFDDKAMHWVRQVPGKGLEWISGISWNSGTIGYADSVKGRFIISRDNAKNSLYLQMNSLRAEDTALYYCAKDGDTSGWYWYGLDVWGQGTTVTVSS
VL: EIVLTQSPATLSLSPGERATLSCRASQSVSSYLAWYQQKPGQAPRLLIHDVSNRATGIPARFSGSGSGTDFTLTISSLEPEDFVVYYCQQRSDWPITFGQGTRLEIKR
notes: as for B2
B9: 69348 (antibody, human IgG1, kappa, V domains shown)
VH: QVQLVESGGGVVQPGRSLRLSCAASGFTFTTYGMHWVRQAPGKGLEWVAVIWYDGSNKYYGDSVKGRFTISRDNSKNTLYLQMNSLRVDDTAVYYCTRTHGYTRSSDGFDYWGQGTLVTVSS
VL: DIQMTQSPSSLSASVGDRVTITCRASQSIRNVLGWFQQKPGKAPQRLIYAASSLQSGVPSRFSGSGSGTEFTLTISSLQPEDFATYYCLQHNFYPLTFGGGTKVEIKR
notes: as for B2
B10: 12798B (antibody, human IgG1, kappa, V domains shown)
VH: EVQLVESGGDLVQPGRSLRLSCAASGFTFDDYAMHWVRQAPGKGLEWVSGISWNSATRVYADSVKGRFTISRDNAKNFLYLQMNSLRSEDTALYHCAKDMDISLGYYGLDVWGQGTTVTVSS
VL: not shown
notes: Tested as bivalent human IgG1 from CHO primary supernatant; also called H1H12798B; REGN17507
B11: 12799B (antibody, human IgG1, kappa, V domains shown)
VH: QITLKESGPTLVKPTQTLTLTCTFSGFSLSTSGVGVVWIRQPPGKALEWLALIYWNDHKRYSPSLGSRLTITKDTSKNQVVLTMTNMDPVDTATYYCAHYSGSYSYYYYGLDVWGQGTTVTVSS
VL: DIQMTQSPSSVSASVGDRVTITCRASQGIASWLAWYQQKPGKAPELLIYAASSLQGGVPSRFSGSGSGTDFTLTISSLQPEDFAIYYCQQANYFPWTFGQGTKVEIKR
notes: Tested as bivalent human IgG1 from CHO primary supernatant; also called H1H12799B; REGN17508
B12: 12801B (antibody, human IgG1, kappa, V domains shown)
VH: EVQLLESGGALVQPGGSLRLSCAASGFTFTSYAMHWVRQAPGKGLEWVSSIRGSGGGTYSADSVKGRFTISRDNSRDTLYLQMNSVRAEDTAVYYCARSHDYGAFDFFDYWGQGTLVTVSS
VL: B9 VL with S28G, N31T, V32D, F36Y, Q45K, Q79R, Y86F, H91Y, F93S
notes: as for B2
B13: 12802B (antibody, human IgG1, kappa, V domains shown)
VH: QVQLVESGGGLVKPGGSLRLSCAASGFTFSDYFMSWIRQAPGKGLEWVSYISSTGSTINYADSVKGRFTISRDNVKNSLYLQMTSLRVEDTAVYYCTRDNWNYEYWGQGTLVTVSS
VL: EIVMTQSPATLSVSPGERATLSCRASQSVSINLAWYQQKPGQAPRLLIFVASTRATGIPARFSGSGSGTEFTLTISSLQSEDFATYYCQQYDIWPYTFGQGTKLEIKR
notes: as for B2
B14: 12808B (antibody, human IgG1, kappa, V domains shown)
VH: QLQLQESGPGLVKPSETLSLTCTVSGESISSNTYYWGWIRQPPGKGLEWIGSIDYSGTTNYNPSLKSRVTISVDTSRNHFSLRLRSVTAADTAVYYCAREWGNYGYYYGMDVWGQGTTVTVSS
VL: DIQMTQSPSSLSASVGDRVTINCRASQGIRNDLGWYQQKPGKAPKRLIYAASSLQSGVPLRFSGSGSGTEFTLTINNLQPEDFATYYCLSHNSYPWTFGQGTKVEIKR
notes: as for B2

Assays:
[1] = target: T1, hmm.hTfRC (REGN2431), human transferrin receptor extracellular domain with hexahistidine-myc-myc tag (human, UniProt P02786 89-760); assay: SPR (Biacore), mAb captured on anti-human Fc, 100 nM hTFR-mmh, 25 C
T1 construct: Monomeric recombinant protein, 79210 g/mol; also called hTFR-mmh; His-myc-myc-hTFRC ecto
Description: (§1) Biacore binding kinetics assays were conducted for the interaction of 32 anti-human TfR IgG1 monoclonal antibodies from CHO supernatants with TfR reagents at 25° C.
(§2) Equilibrium dissociation constants (KD) for the interaction of anti-TfR monoclonal antibodies with human and fascicularis monkey TfR ecto domain recombinant proteins were determined using a real-time surface plasmon resonance (SPR) based Biacore S200 biosensor. All binding studies were performed in 10 mM HEPES, 150 mM NaCl, 3 mM EDTA, and 0.05% v/v surfactant Tween-20, pH 7.4 (HBS-EP) running buffer at […]. The Biacore CM5 sensor surface was first derivatized by amine coupling with a monoclonal mouse anti-human Fc antibody (REGN2567) followed by a step to capture anti-TfR monoclonal antibodies in CHO conditioned media. […] The dissociation of TfR bound to anti-TfR monoclonal antibodies was monitored for 3 minutes in HBS-EP running buffer. At the end of each cycle, the anti-TfR monoclonal antibodies capture surface was regenerated using a 12-sec injection of 20 mM H₃PO₄. The association rate (ka) and dissociation rate (kd) were determined by fitting the real-time binding sensorgrams to a 1:1 binding model with mass transport limitation using Scrubber 2.0 c software. The dissociation equilibrium constant (KD) and dissociative half-life (t½) were calculated from the kinetic rate constants as: […]

[2] = target: T2, mf TFRC ecto-mmh (REGN2054), monomeric monkey (cyno) Tfrc ectodomain with C-terminal myc-myc-hexahistidine tag (monkey (cyno), Macaca fascicularis, UniProt H9EXL1 89-760); assay: SPR (Biacore), mAb captured on anti-human Fc, 100 nM mfTfR-mmh, 25 C
T2 construct: range 89-760; also called mfTfR-mmh; mfTFR-mmh
Description: as §1, §2

T1 sequence (P02786 other isoform, or with tags, fused parts or gaps): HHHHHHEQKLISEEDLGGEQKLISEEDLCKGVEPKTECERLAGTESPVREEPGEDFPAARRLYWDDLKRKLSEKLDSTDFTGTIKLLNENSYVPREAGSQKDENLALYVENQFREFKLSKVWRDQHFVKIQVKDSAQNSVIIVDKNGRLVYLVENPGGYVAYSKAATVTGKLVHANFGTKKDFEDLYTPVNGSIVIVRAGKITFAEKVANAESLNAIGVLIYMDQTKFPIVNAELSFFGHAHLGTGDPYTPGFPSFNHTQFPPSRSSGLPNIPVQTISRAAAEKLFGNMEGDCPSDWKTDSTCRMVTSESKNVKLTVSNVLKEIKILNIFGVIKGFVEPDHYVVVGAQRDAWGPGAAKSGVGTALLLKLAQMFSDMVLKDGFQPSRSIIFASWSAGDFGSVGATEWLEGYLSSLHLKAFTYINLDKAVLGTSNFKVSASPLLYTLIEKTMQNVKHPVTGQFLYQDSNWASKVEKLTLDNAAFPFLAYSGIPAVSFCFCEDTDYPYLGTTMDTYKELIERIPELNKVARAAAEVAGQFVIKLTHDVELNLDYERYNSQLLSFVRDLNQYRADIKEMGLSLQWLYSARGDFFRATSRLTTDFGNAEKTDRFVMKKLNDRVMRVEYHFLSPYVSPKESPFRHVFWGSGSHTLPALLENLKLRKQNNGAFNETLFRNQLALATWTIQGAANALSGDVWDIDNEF
T2 sequence (chain, as listed by the source): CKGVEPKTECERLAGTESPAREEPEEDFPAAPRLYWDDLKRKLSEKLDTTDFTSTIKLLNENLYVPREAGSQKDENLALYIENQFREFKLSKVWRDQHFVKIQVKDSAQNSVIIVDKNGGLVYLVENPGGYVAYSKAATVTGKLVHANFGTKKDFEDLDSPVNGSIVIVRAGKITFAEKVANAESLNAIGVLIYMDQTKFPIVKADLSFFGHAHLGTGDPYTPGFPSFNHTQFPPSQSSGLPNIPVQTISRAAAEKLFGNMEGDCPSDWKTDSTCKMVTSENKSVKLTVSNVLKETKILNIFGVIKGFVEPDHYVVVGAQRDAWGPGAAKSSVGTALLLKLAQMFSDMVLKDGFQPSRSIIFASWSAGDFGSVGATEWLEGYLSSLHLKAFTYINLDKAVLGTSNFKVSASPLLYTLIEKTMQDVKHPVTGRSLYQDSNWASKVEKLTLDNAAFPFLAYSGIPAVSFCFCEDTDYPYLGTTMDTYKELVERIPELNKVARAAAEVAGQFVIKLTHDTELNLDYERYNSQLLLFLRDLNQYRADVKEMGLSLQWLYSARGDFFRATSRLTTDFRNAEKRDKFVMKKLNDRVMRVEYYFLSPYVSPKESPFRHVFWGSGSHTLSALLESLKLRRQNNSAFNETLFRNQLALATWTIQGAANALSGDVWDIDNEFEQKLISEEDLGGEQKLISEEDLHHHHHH

Binder	100 nM Ag Bound (RU) [1] [RU]	Kd [1] [nM]	koff [1] [s⁻¹]	kon [1] [M⁻¹ s⁻¹]	t½ [1] [min]	100 nM Ag Bound (RU) [2] [RU]	Kd [2] [nM]	koff [2] [s⁻¹]	kon [2] [M⁻¹ s⁻¹]	t½ [2] [min]
B1	904	0.836	0.000115	138000	100	26	14.4	0.00996	691000	1.2
B2	357	5.8	0.000336	57900	34.3	315	7.44	0.000485	65200	23.8
B3	409	3.51	0.000252	72000	45.9	346	7.02	0.000486	69200	23.8
B4	462	1.16	8.08e-05	70000	143	331	5.9	0.000403	68300	28.7
B5	150	6.5	0.00115	177000	10	77	19.2	0.00378	197000	3.1
B6	465	2.45	0.00018	73400	64.1	24	19	0.0106	558000	1.1
B7	87	41	0.00466	114000	2.5	26	20.5	0.01	489000	1.2
B8	999	0.429	6.23e-05	144000	185	634	8.11	0.000723	89200	16
B9	680	1.62	0.000172	106000	67.2	433	4.8	0.000461	96000	25.1
B10	1150	0.387	6.33e-05	163000	183	508	16.3	0.00129	79000	9
B11	699	0.851	6.62e-05	77600	174	651	1.88	0.000162	86400	71.2
B12	598	0.513	4.19e-05	81900	276	159	10.2	0.000653	64000	17.7
B13	903	0.236	2.92e-05	123000	395	464	7.51	0.000529	70500	21.8
B14	964	0.894	0.000107	119000	108	626	5.78	0.000454	78500	25.5
